{"source": "patent US11634470B2", "about": "“Integrin binding peptides and uses thereof” (Universiteit Twente, priority 2015, dated 2023)", "key": {"[1]": {"biological_target": "T1, α5β1 (Homo sapiens, UniProt P08648)", "T1 sequence (P08648 42-894 limits assumed)": "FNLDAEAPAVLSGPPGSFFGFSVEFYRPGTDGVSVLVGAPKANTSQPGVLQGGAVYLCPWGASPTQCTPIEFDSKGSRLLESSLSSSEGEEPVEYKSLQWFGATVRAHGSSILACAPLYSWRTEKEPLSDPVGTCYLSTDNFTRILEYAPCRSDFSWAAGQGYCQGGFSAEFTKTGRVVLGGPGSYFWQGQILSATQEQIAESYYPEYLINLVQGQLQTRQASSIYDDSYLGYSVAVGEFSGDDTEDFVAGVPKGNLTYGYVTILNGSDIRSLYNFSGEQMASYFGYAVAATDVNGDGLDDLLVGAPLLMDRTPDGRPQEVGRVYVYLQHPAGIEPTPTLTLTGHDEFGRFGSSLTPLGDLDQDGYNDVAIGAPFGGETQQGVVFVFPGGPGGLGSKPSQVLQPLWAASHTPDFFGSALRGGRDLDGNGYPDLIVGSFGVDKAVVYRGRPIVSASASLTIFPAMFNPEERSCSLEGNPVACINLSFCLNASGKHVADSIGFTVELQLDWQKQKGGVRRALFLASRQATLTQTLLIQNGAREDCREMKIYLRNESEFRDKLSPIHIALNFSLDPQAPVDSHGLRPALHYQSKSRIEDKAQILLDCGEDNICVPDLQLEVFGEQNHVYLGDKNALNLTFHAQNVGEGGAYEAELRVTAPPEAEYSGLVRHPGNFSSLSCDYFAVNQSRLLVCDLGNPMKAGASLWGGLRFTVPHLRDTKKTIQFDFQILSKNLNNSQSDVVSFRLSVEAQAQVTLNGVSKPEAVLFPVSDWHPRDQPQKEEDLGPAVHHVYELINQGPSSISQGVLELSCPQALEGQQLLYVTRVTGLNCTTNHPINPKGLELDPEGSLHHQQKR", "T1 sequence (P08648 895-995 limits assumed)": "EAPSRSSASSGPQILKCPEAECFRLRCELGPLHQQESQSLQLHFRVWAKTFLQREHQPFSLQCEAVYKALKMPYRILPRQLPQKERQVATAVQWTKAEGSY", "T1 sequence (P05556 21-728 partner limits assumed)": "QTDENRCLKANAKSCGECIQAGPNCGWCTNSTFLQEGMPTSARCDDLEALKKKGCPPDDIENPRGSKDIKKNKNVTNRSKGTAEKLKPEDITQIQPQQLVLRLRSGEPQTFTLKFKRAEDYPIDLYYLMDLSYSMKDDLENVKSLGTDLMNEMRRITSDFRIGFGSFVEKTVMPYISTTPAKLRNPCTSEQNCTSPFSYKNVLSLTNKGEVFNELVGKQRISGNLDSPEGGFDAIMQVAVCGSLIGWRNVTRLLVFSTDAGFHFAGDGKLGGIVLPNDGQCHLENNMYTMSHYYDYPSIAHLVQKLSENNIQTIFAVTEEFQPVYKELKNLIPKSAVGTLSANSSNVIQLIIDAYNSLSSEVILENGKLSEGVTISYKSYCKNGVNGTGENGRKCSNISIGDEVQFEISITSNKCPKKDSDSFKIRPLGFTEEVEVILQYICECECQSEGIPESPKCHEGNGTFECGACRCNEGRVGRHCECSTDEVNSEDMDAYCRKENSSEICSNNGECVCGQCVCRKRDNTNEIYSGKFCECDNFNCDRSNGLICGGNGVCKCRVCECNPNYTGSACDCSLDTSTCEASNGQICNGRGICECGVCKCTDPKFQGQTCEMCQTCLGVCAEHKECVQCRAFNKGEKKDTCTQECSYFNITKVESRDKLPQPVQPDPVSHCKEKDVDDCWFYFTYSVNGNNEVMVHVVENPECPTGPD", "test": "ITGA5 peptide selection, overlapping fibronectin peptides displayed on membrane", "assay_type": "binding", "parameters": "purchased R&D systems", "conditions": "peptides attached by C-terminal on membrane, 5 μg/ml α5β1", "method": "Peptides were attached to their c-terminal site using stable linker. […] The peptide-displaying […] membrane was soaked in methanol for 1 minute and rinsed in Tris-buffered saline (TBS) and washed 3 times. Then, the membrane was blocked with 3% BSA in 0.05% TWEEN®-20 containing TBS (TBST) for 3 hours at room temperature. Then, the membrane was washed for 10 minutes with TBST and incubated with 5 μg/ml α5β1 human recombinant protein (R&D systems) in 3% BSA in TBST for 1 hour at room temperature and then overnight at 4° C. Subsequently, the membrane was washed 3 times with TBST. Thereafter, the bound receptor to the membrane was transferred to the PVDF membrane. To achieve this, first, the PVDF membrane was soaked in methanol for 1 minute and then blocked with 5% skimmed fat milk for 2 hours. Then, the membrane was incubated with primary anti-alpha5 integrin antibody (Sigma-Aldrich) for overnight in 5% skimmed milk. The membrane was washed 3 times with TBST and then incubated with anti-rabbit-HRP secondary antibody (Dako), washed and developed with chemiluminescence detection kit."}, "[2]": {"tested_on": "human primary pancreatic stellate cells (PSCs)", "test": "TGF-β1 activation of pancreatic stellate cells", "assay_type": "cell-based", "conditions": "TGFβ1-activated PSCs, immunostaining, 20 μM", "method": "Human primary pancreatic stellate cells (PSCs) were obtained from ScienCell (Carlsbad, Calif.) and were cultured in specified medium provided by the manufacturer, supplemented with penicillin/streptomycin. Cells were used less than the passage 9 and seeded on a Poly-L-Lysine-coated plate.\nPSCs were seeded into a 12-well plate (6×10^4 cells/well, for gene expression) or 24-well plate (for staining) in complete medium. After 24 hours, cells were starved in serum-free medium and then after 24 hours, they were added with TGF-β1 (5 ng/ml) with/without the peptide.\nAfter 24 hours of incubation, cells were lysed with the lysis buffer and total RNA was isolated using the GenElute™ Mammalian Total RNA Miniprep Kit. The RNA amount was measured by a NanoDrop® ND-1000 Spectrophotometer (Wilmington, Del.). Subsequently, cDNA was synthesized with iScript™ cDNA Synthesis Kit (BioRad, Veenendaal, The Netherlands). 10 ng cDNA was used for each PCR reaction. The real-time qPCR primers for human αSMA and RPS18 were purchased from Sigma (The Netherlands). Gene expression levels were normalized to the expression of the house-keeping gene RPS18s.\nFor immunostaining, the cells were washed and fixed with acetone-methanol and processed for immunocytochemical staining.\nFor immunocytostaining, cells were fixed with acetone-methanol (1:1) at −20° C. for 30 minutes and then dried and rehydrated for 10 minutes. […]"}, "[3]": {"tested_on": "human skin fibroblasts BJhtert", "test": "Scratch (wound) migration of human skin fibroblasts", "assay_type": "cell-based", "conditions": "after 24 hours", "method": "FIG. 15: Effect of peptides on migration of human fibroblasts. Human skin fibroblasts BJhtert were grown to full confluency and a scratch (wound) was made and effects of peptides were determined on the wound closure (migration of fibroblasts) after 24 hours. […] (1. SEQ ID NO:8, 2. SEQ ID NO: 11, 3. SEQ ID NO:62, 4. SEQ ID NO:63, 5. SEQ ID NO: 64, 6. SEQ ID NO:76, and 7. SEQ ID NO:68.)"}, "[4]": {"biological_target": "T1, α5β1", "test": "Peptide binding study on the coated receptor", "conditions": "for binding to the coated α5β1 receptor: PEG(6)-Fluorescein labeled peptide", "method": "The purified human recombinant α5β1 or α11β1 receptors (5 μg/ml in PBS) were coated onto 96-well ELISA plates (White Maxisorb-Nunc) by incubating overnight at 4° C. Then, the wells were blocked with blocking buffer (5% (w/v) BSA, 150 mM Nacl, 25 mM Tris) for 2 hours at room temperature. Then, the wells were washed three times with 200 μl of washing buffer (150 mM Nacl, 25 mM Tris-base, 0.005% TWEEN® 20, 0.5% BSA). Thereafter, the peptides conjugated with PEG(6)-FITC were diluted to different concentrations in washing buffer. For the competitive studies, the wells were co-incubated with 10-fold higher amount of unlabeled peptides. The plates were incubated at 37° C. for 60 minutes. Then, the wells were washed three times with washing buffer and subsequently, the plates were read for the fluorescein signal Ex/Em 485 nm/520 nm using a fluorescent plate reader (Perkin Elmer)."}, "[5]": {"biological_target": "α11β1 receptor (Homo sapiens, UniProt Q9UKX5)", "sequence (Q9UKX5 23-1141 limits assumed)": "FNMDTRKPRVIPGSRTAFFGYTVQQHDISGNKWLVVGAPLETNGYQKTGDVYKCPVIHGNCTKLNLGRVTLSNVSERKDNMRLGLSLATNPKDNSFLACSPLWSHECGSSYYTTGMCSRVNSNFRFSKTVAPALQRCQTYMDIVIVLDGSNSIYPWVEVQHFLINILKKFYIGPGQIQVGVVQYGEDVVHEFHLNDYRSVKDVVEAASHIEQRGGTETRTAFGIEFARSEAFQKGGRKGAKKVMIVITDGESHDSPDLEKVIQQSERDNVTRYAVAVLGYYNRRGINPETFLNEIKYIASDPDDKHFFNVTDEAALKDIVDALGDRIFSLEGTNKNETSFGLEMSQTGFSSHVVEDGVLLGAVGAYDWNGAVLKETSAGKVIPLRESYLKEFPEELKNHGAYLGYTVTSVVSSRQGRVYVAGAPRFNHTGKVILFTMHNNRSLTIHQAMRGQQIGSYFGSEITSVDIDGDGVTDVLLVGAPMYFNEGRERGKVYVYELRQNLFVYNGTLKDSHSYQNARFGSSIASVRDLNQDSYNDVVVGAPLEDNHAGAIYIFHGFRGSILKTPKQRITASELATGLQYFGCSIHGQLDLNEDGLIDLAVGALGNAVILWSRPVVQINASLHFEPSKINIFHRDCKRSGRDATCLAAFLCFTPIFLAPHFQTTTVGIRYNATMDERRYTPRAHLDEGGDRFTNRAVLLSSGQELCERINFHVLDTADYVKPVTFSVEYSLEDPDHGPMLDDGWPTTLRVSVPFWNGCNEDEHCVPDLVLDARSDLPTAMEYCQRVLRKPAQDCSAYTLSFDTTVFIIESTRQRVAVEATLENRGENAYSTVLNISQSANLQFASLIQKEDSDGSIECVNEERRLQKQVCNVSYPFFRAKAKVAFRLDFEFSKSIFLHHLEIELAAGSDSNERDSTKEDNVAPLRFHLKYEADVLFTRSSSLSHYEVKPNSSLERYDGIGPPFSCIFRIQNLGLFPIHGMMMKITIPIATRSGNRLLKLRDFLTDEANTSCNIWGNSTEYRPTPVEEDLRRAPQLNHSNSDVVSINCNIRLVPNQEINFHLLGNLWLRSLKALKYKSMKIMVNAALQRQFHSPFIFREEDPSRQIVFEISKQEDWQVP", "sequence (P05556 21-728 partner limits assumed)": "as the sequence (P05556 21-728 partner limits assumed) above", "test": "Peptide microarray binding, alanine scanning and chain length scan of AXI-I", "conditions": "receptor 10 μg/ml", "method": "Peptide microarray was prepared by conjugating peptides at their N-terminal to a glass slide using a PEG linker. […] For the binding studies, the peptide array was blocked with 3% BSA in TBST for 2 hours. Then the array slide was washed 5 times in TBST and subsequently incubated with the target receptor (α11β1, 10 μg/ml dissolved in PBS) for 1 hour at 37° C. The slides were washed with TBST and then incubated with primary antibody (1 μg/ml) against ITGA11 for 1 hour at 37° C. Then slides were washed and incubated with fluorescent dye labeled secondary antibodies for 30 minutes. The slides were washed with TBST and water and then dried and scanned with a microarray scanner to detect binding of the peptides. The enlightened spots were analyzed using ImageJ software. To determine the unspecific binding, a peptide array was incubated with only primary and secondary antibodies without the receptor incubation step. Then, the signal of unspecific binding was subtracted from the total binding to calculate specific binding."}, "[6]": {"biological_target": "T2, ITGA11 receptor (α11β1) (Homo sapiens, UniProt Q9UKX5)", "T2 construct": "purchased R&D systems", "T2 sequence (Q9UKX5 23-1141 limits assumed)": "as the sequence (Q9UKX5 23-1141 limits assumed) above", "T2 sequence (P05556 21-728 partner limits assumed)": "as the sequence (P05556 21-728 partner limits assumed) above", "test": "Binding of FITC-labeled peptides to coated ITGA11 receptor", "conditions": "FITC-labeled peptide, 37° C. 1 hour", "method": "(§1) Purified ITGA11 receptor (α11β1; 100 μg/ml—stock; R&D systems) was diluted to 5 μg/ml with 1×PBS. 96-well ELISA White Maxisorb plate (Nunc) was coated with 50 μl of 5 μg/ml ITGA11 (or as control α5β1) receptor for overnight at 4° C. Then, wells were blocked for 3-4 hours with 200 μl of blocking buffer (1×PBS containing 5% BSA). Wells were washed three times with 200 μl of washing buffer (1×PBS containing 0.5% BSA and 0.05% TWEEN®-20). Peptides conjugated with FITC were diluted to different concentrations in washing buffer and then added to the plate and incubated at 37° C. for 1 hour. In addition, the binding of the peptide was blocked by co-incubation with 10× higher amount of unlabeled peptide. Subsequently, wells were washed three times with washing buffer. Then, 100 μl of 1×PBS was added and plates were read at 485 nm/520 nm with a fluorescence plate reader."}, "[7]": {"tested_on": "primary human pancreatic stellate cells", "test": "AXI-I-PEG-FITC binding assay, flow cytometry", "assay_type": "cell-based", "parameters": "unit not given here", "conditions": "suspended PSCs, 1 hour at 4° C.", "method": "PSCs were trypsinized using trypsin-EDTA solution and cell numbers were diluted to 4×10^4 cells/ml. Cells were incubated at 37° C. for 30 minutes to allow receptor recovery. Then different concentrations of AXI-I-FITC was added to the cells containing 2% FBS and incubated at 4° C. for 60 minutes. Thereafter, cells were centrifuged at 1500 rpm at 4° C. for 10 minutes. Supernatant was removed and cells were washed 3 times with PBS and then were fixed with 0.5% formaldehyde for 1 hour at 4° C. and measured with flow cytometry for fluorescence."}, "[8]": {"biological_target": "T1, α5β1", "test": "Binding of FITC-labeled peptide to coated control receptor α5β1", "conditions": "similar to empty wells", "method": "as §1"}, "[9]": {"tested_on": "LX2 hepatic stellate cells", "test": "Cell binding experiment, fluorescence microscopy", "assay_type": "cell-based, human", "conditions": "FITC-labeled peptides 20 μM, 2 hours, room temperature", "method": "Human hepatic stellate cells (LX2, 15,000 cells/well) were cultured overnight in permanox Lab-Tek 8-well chamber slides (Nunc). After overnight incubation, cells were washed 3× with 0.5% BSA containing medium and then FITC-labeled peptides (20 μM) was added and incubated at room temperature for 2 hours with intermittent shaking. The cells were then washed 3× with 0.5% BSA containing medium and 2×PBS. Thereafter, cells were fixed with 4% paraformaldehyde (prepared in 1×PBS) for 20 minutes followed by 3 times washing with 1×PBS. Cells were then mounted with mounting medium with DAPI (vector labs) and visualized under the fluorescence microscope (Nikon E600). For phalloidin staining, cells after fixation were incubated with TRITC-conjugated Phalloidin (1:1000 prepared in 1×PBS containing 0.1% TRITON-X® 100) for 10 minutes. Then, cells were washed thrice with PBS and mounted with DAPI-containing mounting medium."}}, "note": "Primed or numbered codes have the meaning given here. Where no end group is shown, it is not given here. PEG(6) = PEG(6) linker"}
{"substance": "VALNGREESPLL [Seq 2]", "values": [{"measurement": "binding to the α5β1 receptor (signal strength)", "setting": "[1]", "value": "VALNGREESPLL-very weak"}]}
{"substance": "TNLLVRYSPVKN [Seq 7]", "values": [{"measurement": "binding to the α5β1 receptor (signal strength)", "setting": "[1]", "value": "TNLLVRYSPVKN-moderate"}]}
{"substance": "RYYRITYC (integrin binding peptide) [AV3-cys]", "values": [{"measurement": "expression of fibrotic markers α-SMA, Col-1a1 and vimentin", "setting": "[2]", "value": "clearly inhibited the expression of these biomarkers"}, {"measurement": "migration of fibroblasts (wound closure)", "setting": "[3]", "value": "significantly inhibited the migration of fibroblasts"}]}
{"substance": "AV3.3: AV3 variant of FIG. 15 Panel B; possibly third listed peptide, SEQ ID NO:62 (RAYRITY; ITGA5 binding peptide)", "values": [{"measurement": "reduction on migration", "setting": "[3]", "value": "about 30%"}]}
{"substance": "YYRITYGETGGN (ITGA5 binding peptide) [nAV2]", "values": [{"measurement": "binding to the coated α5β1 receptor", "setting": "[4]", "value": "good binding"}, {"measurement": "blocking of nAV2-PEG-fluorescein binding to coated α5β1 by excess unlabeled peptide", "setting": "[4]; excess (10-fold) of unlabeled peptide", "value": "blocked"}, {"measurement": "binding to the α5β1 receptor (signal strength)", "setting": "[1]", "value": "YYRITYGETGGN-very strong"}]}
{"substance": "YYRITYGETGGN: YYRITYGETGGN with PEG(6)-Fluorescein introduced at the N-terminal side of the peptide (not fully specified (N-terminus))", "values": [{"measurement": "binding to the coated α5β1 receptor", "setting": "[4]", "value": "no binding was observed"}]}
{"substance": "LTEWLRWF (ITGA11 binding peptide)", "values": [{"measurement": "binding to the α11β1 receptor on peptide microarray", "setting": "[5]", "value": "strongest binding"}]}
{"substance": "AXI-I-FITC: AXI-I peptide labeled with PEG(6)-FITC (SGLTEWLRWFNS; also: labeled with PEG(6)-FITC, site not given here)", "values": [{"measurement": "binding to coated ITGA11 (α11β1) receptor", "setting": "[6]", "value": "bound to the ITGA11 receptor specifically"}, {"measurement": "concentration at which binding reached plateau", "setting": "[7]", "value": 20}, {"measurement": "binding to irrelevant receptor α5β1", "setting": "[8]", "value": "very low binding"}]}
{"substance": "YYRITYGETGGN (SEQ ID NO:56)-K-PEG(6)-Fluorescein (YYRITYGETGGNK-{PEG(6)-Fluorescein}) [nAV2-FITC]", "values": [{"measurement": "binding to LX2 hepatic stellate cells", "setting": "[9]", "value": "clearly bound to these cells"}]}
{"substance": "SIELTNLLVRYS [Seq 6]", "values": [{"measurement": "binding to the α5β1 receptor (signal strength)", "setting": "[1]", "value": "SIELTNLLVRYS-moderate"}]}
{"substance": "GDSPASSKPISI [Seq 5]", "values": [{"measurement": "binding to the α5β1 receptor (signal strength)", "setting": "[1]", "value": "GDSPASSKPISI-moderate"}]}
{"substance": "SFATWTPNFERN (integrin binding peptide) [AXI-II]", "values": [{"measurement": "binding to LX2 hepatic stellate cells", "setting": "[9]", "value": "bound to the stellate cells"}]}
{"substance": "TTVRYYRITYGE (integrin binding peptide) [Seq 3]", "values": [{"measurement": "binding to the α5β1 receptor (signal strength)", "setting": "[1]", "value": "TTVRYYRITYGE-strong"}]}
{"substance": "ITANSFTVHWIA [Seq 1]", "values": [{"measurement": "binding to the α5β1 receptor (signal strength)", "setting": "[1]", "value": "ITANSFTVHWIA-weak"}]}
